According to patent US20130143948A1, “MST1 AS A PROGNOSTIC BIOMARKER AND THERAPEUTIC TARGET IN HUMAN CANCER” (CEDARS-SINAI MEDICAL CENTER, priority 2010, published 2013):

Experiments:
[1] = tested on: LNCaP/Vector cells; test: BrdU incorporation cell proliferation assay, LNCaP/Vector; type: cell-based; conditions: Dox 4 μg/ml, 24 hr
Experimental: For in vitro kinase assay, the recombinant, pre-activated MST1 protein kinase was incubated with purified GST-AR DBD/HR fusion protein and 10 μCi ^32P-γ-ATP or 100 μM unlabeled-ATP. The reaction mixture was resolved on SDS-PAGE and autoradiographed. Cell-Death ELISA and BrdU incorporation assays were performed to assess cell death and cell proliferation, respectively, according to the manufacturer's instructions (Roche Molecular Diagnostics).

[2] = tested on: C4-2/HA-MST1 tumor xenografts; test: Subcutaneous prostate cancer xenograft in athymic nude mice; type: in vivo
Experimental: C4-2/Vector or C4-2/HA-MST1 cells mixed with Matrigel (1-to-1 ratio) were inoculated subcutaneously in athymic nude mice (CD-1 nu/nu; Charles River Laboratories, Wilmington, Mass.). 1×10^6 cells/100 μl were used per injection per site (right and left flanks). Mice were treated with Dox (0.5 mg/ml) in drinking water to induce MST1 expression for 12 weeks. Institutional Animal Care and Use Committee (IACUC) policies and guidelines were strictly applied. Tumor volumes were assessed by caliper according to procedures described previously (20). Mice were sacrificed and evaluated for tumor growth anatomically and tumor tissues extracted from mice were fixed in 10% formaldehyde for the construction of histological sections or “snap” frozen at −80° C. The expression of MST1 was verified in histological sections by immunohistochemistry using anti-HA antibody.

[3] = C4-2/HA-MST1 vs C4-2/Vector, Dox in drinking water, 12 weeks

For `C[C@H]1c2cccc(O)c2C(=O)C2=C(O)[C@]3(O)C(=O)C(C(N)=O)=C(O)[C@@H](N(C)C)[C@@H]3[C@@H](O)[C@@H]21` [Dox, doxycycline], the “effect on cell growth” value [1] was “no effect”.

B1: MST1: serine-threonine kinase MST1 (mammalian sterile STE20-like kinase 1), enforced Dox-inducible HA-tagged expression in tumor cells (protein, UniProt Q13043 1-487, looked up)
Serine/threonine-protein …: METVQLRNPPRRQLKKLDEDSLTKQPEEVFDVLEKLGEGSYGSVYKAIHKETGQIVAIKQVPVESDLQEIIKEISIMQQCDSPHVVKYYGSYFKNTDLWIVMEYCGAGSVSDIIRLRNKTLTEDEIATILQSTLKGLEYLHFMRKIHRDIKAGNILLNTEGHAKLADFGVAGQLTDTMAKRNTVIGTPFWMAPEVIQEIGYNCVADIWSLGITAIEMAEGKPPYADIHPMRAIFMIPTNPPPTFRKPELWSDNFTDFVKQCLVKSPEQRATATQLLQHPFVRSAKGVSILRDLINEAMDVKLKRQESQQREVDQDDEENSEEDEMDSGTMVRAVGDEMGTVRVASTMTDGANTMIEHDDTLPSQLGTMVINAEDEEEEGTMKRRDETMQPAKPSFLEYFEQKEKENQINSFGKSVPGPLKNSSDWKIPQDGDYEFLKSWTVEDLQKRLLALDPMMEQEIEEIRQKYQSKRQPILDAIEAKKRRQQNF
modifications: HA tag
notes: serine-threonine kinase MST1 (mammalian sterile STE20-like kinase 1), enforced Dox-inducible HA-tagged expression in tumor cells
In the case of B1, the “mice that developed tumors” value ([2]; 12 weeks after subcutaneous inoculation, 10 mice per group) is reported as 2 out of 10, the “suppression of tumor growth” value [2, 3] is reported as 35 fold and the “suppression of tumorigenic rates” value [2, 3] is reported as 4 fold.
